In data set [1] the target is T1, aromatic amino acid decarboxylase (AADC), wild-type (Homo sapiens, UniProt P20711).
T1 construct: gene DDC
T1 sequence (P20711 1-480): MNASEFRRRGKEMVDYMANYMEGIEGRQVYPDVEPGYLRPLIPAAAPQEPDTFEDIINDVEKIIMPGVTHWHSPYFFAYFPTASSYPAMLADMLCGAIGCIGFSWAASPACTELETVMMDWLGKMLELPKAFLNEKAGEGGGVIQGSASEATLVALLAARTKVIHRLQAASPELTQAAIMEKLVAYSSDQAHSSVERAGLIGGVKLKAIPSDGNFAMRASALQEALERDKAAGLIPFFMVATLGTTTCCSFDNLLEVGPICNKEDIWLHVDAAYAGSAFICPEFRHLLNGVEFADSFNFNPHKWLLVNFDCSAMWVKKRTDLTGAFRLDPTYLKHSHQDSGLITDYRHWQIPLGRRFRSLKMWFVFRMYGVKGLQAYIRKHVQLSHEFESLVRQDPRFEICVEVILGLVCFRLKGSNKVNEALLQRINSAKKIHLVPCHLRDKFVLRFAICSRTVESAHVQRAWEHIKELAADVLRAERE
Nature of the data set: CD thermal denaturation at […] nm ([…] to […] °C); DLS of cDopa-bound form. Format: binding.

Data set [2] addresses T2, aromatic amino acid decarboxylase (AADC), P330L variant (Homo sapiens, UniProt P20711, P330L).
T2 construct: gene DDC
T2 sequence (P20711 1-480 P330L): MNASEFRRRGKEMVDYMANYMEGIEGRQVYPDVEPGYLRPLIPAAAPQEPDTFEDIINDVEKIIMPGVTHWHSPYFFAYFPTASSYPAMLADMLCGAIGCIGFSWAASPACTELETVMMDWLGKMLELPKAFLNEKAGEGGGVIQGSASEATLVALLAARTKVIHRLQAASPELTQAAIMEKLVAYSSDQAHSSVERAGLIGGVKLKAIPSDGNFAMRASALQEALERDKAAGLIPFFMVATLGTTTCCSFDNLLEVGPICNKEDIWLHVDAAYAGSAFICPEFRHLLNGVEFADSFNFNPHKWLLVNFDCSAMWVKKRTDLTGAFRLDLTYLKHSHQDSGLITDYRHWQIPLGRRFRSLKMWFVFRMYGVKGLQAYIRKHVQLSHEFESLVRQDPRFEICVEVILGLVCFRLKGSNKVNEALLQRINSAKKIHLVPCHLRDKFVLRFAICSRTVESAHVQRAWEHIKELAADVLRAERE
Nature of the data set: CD thermal denaturation at […] nm ([…] to […] °C) of cDopa-bound form. Format: binding.

The target in data set [3] is T2, aromatic amino acid decarboxylase (AADC), P330L variant. Nature of the data set: intrinsic fluorescence quenching titration of apoenzyme (KD(PLP)). Format: binding.
Data set [4] has as its target T1, aromatic amino acid decarboxylase (AADC), wild-type. Described as above. Format: binding.
Substrate in data set [5]: N[C@@H](Cc1ccc(O)c(O)c1)C(=O)O
The data set can be described thus: purified protein. Particulars: PLP active site; external aldimine with PLP; pH 7.4; 25.0 °C.

Substrate in data set [6]: N[C@@H](Cc1c[nH]c2ccc(O)cc12)C(=O)O
Nature of the data set: purified protein. Format: biochemical, Homo sapiens. Particulars: pH 7.4; 25.0 °C.

As for `C[C@@](Cc1ccc(O)c(O)c1)(NN)C(=O)O` [cDopa, carbiDopa], the “WT (°C)” value in data set [1] was found to be 68.9 ± 0.4 °C. Also, in data set [2], the “P330L (°C)” value worked out at 69.9 ± 0.3 °C.

`Cc1ncc(COP(=O)(O)O)c(C=O)c1O` [PLP, pyridoxal 5'-phosphate]: the Kd was 123 ± 19 nM in data set [3] and 101 ± 10 nM in data set [4].

B1: aromatic amino acid decarboxylase (AADC), wild-type (Homo sapiens) (protein)
chain: MNASEFRRRGKEMVDYMANYMEGIEGRQVYPDVEPGYLRPLIPAAAPQEPDTFEDIINDVEKIIMPGVTHWHSPYFFAYFPTASSYPAMLADMLCGAIGCIGFSWAASPACTELETVMMDWLGKMLELPKAFLNEKAGEGGGVIQGSASEATLVALLAARTKVIHRLQAASPELTQAAIMEKLVAYSSDQAHSSVERAGLIGGVKLKAIPSDGNFAMRASALQEALERDKAAGLIPFFMVATLGTTTCCSFDNLLEVGPICNKEDIWLHVDAAYAGSAFICPEFRHLLNGVEFADSFNFNPHKWLLVNFDCSAMWVKKRTDLTGAFRLDPTYLKHSHQDSGLITDYRHWQIPLGRRFRSLKMWFVFRMYGVKGLQAYIRKHVQLSHEFESLVRQDPRFEICVEVILGLVCFRLKGSNKVNEALLQRINSAKKIHLVPCHLRDKFVLRFAICSRTVESAHVQRAWEHIKELAADVLRAERE
Turning to B1, in “purified protein [5]”, the Michaelis-Menten constant (Km) is 16 ± 1 µM, the kcat came out at 5.5 s⁻¹ and the kcat/Km was 344000 M⁻¹ s⁻¹. Moreover, in “purified protein [6]”, the Km amounted to 9 ± 1 µM, the kcat is 0.56 ± 0.02 s⁻¹ and the catalytic efficiency (kcat/Km) is 62000 ± 7000 M⁻¹ s⁻¹.

B2: aromatic amino acid decarboxylase (AADC), P330L variant (Homo sapiens; P330L) (protein)
chain: MNASEFRRRGKEMVDYMANYMEGIEGRQVYPDVEPGYLRPLIPAAAPQEPDTFEDIINDVEKIIMPGVTHWHSPYFFAYFPTASSYPAMLADMLCGAIGCIGFSWAASPACTELETVMMDWLGKMLELPKAFLNEKAGEGGGVIQGSASEATLVALLAARTKVIHRLQAASPELTQAAIMEKLVAYSSDQAHSSVERAGLIGGVKLKAIPSDGNFAMRASALQEALERDKAAGLIPFFMVATLGTTTCCSFDNLLEVGPICNKEDIWLHVDAAYAGSAFICPEFRHLLNGVEFADSFNFNPHKWLLVNFDCSAMWVKKRTDLTGAFRLDLTYLKHSHQDSGLITDYRHWQIPLGRRFRSLKMWFVFRMYGVKGLQAYIRKHVQLSHEFESLVRQDPRFEICVEVILGLVCFRLKGSNKVNEALLQRINSAKKIHLVPCHLRDKFVLRFAICSRTVESAHVQRAWEHIKELAADVLRAERE
As for B2, in “purified protein [5]”, the Michaelis constant (Km) came to 57 ± 2 µM, the kcat worked out at 0.0291 s⁻¹ and the kcat/Km came to 510 M⁻¹ s⁻¹. For the same molecule, in the data set “purified protein [6]”, the Km was 29 ± 3 µM, the kcat was determined as 0.0092 ± 0.0003 s⁻¹ and the kcat/Km turned out to be 320 ± 30 M⁻¹ s⁻¹.

For orientation: Kd means a measure of binding affinity in units of concentration. Broadly, the Km is the concentration of substrate that gives half-maximal velocity. One may read the kcat as the number of substrate molecules converted per active site and unit of time at saturation. In general, kcat/Km refers to the second-order rate constant that governs catalysis at low substrate concentration.

For the origin of these results see article PMC9121088, “The novel P330L pathogenic variant of aromatic amino acid decarboxylase maps on the catalytic flexible loop underlying its crucial role” (Cellular and Molecular Life Sciences: CMLS, 2022).
